These results are taken from PMC7832040 (Science translational medicine, 2020).

What is called Kd is the constant that tells how readily two partners part at equilibrium.

For assay [1], the target named is murine CD206 (murine) (UniProt Q61830). The assay is described as follows: MST.
Assay [2] concerns the target mannose receptor CD206, human, recombinant (human) (UniProt P22897). The experiment in a line: MST.
For assay [3], the target named is endogenous CD206 in human M2-polarized macrophages (human (endogenous in M2-polarized macrophages)) (UniProt P22897). The assay is described as follows: cellular thermal shift assay.
Assay [4] has as its target endogenous CD206 in murine M2-polarized macrophages (BMDMs) (mouse (endogenous in M2 BMDMs)) (UniProt Q61830). The experiment in a line: cellular thermal shift assay.
Assay [5] has as its target T1, CD206 (Homo sapiens, UniProt P22897).
T1 sequence (P22897 19-1456): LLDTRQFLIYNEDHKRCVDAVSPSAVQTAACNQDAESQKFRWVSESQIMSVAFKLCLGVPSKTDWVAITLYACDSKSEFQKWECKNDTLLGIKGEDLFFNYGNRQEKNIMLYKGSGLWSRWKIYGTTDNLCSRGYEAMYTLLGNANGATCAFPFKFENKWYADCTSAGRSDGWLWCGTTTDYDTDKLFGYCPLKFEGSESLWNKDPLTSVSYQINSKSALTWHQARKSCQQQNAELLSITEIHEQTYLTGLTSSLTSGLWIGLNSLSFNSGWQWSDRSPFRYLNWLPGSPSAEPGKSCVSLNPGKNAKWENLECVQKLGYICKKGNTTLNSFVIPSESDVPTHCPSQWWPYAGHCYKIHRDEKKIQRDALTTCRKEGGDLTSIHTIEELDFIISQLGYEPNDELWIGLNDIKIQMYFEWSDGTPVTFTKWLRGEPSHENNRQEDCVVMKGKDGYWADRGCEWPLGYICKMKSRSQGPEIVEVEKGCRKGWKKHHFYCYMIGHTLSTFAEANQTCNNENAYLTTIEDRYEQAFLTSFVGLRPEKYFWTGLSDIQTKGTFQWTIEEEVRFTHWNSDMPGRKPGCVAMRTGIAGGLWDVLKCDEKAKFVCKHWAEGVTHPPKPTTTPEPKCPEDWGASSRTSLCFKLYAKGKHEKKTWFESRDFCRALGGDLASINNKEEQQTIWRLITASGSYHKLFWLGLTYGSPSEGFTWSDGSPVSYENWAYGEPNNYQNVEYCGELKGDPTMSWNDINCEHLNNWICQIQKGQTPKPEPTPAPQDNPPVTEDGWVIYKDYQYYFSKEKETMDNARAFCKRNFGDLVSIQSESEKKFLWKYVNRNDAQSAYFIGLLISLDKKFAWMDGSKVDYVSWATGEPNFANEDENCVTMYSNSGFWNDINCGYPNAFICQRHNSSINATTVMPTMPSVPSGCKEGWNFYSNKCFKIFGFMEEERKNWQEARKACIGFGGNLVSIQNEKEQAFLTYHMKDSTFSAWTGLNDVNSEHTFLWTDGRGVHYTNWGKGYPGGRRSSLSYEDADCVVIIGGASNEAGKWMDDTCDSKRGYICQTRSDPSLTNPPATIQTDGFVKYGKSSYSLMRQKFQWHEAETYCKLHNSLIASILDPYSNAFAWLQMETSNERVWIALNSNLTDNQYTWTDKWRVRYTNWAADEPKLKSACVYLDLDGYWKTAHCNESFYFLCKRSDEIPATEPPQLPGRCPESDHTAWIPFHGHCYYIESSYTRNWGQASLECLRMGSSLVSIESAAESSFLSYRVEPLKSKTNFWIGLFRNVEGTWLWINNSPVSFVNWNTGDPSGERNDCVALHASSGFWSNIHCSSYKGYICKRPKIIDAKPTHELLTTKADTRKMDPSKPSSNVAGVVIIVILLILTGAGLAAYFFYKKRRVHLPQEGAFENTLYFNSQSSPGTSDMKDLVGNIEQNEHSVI
To be noted: xenotransplanted tumors; ref [39]–[41]; cited from earlier work.

A value given as a limit tells only on which side of the number the result lay.

murine CD206 (murine), sequence (Q61830 20-1456): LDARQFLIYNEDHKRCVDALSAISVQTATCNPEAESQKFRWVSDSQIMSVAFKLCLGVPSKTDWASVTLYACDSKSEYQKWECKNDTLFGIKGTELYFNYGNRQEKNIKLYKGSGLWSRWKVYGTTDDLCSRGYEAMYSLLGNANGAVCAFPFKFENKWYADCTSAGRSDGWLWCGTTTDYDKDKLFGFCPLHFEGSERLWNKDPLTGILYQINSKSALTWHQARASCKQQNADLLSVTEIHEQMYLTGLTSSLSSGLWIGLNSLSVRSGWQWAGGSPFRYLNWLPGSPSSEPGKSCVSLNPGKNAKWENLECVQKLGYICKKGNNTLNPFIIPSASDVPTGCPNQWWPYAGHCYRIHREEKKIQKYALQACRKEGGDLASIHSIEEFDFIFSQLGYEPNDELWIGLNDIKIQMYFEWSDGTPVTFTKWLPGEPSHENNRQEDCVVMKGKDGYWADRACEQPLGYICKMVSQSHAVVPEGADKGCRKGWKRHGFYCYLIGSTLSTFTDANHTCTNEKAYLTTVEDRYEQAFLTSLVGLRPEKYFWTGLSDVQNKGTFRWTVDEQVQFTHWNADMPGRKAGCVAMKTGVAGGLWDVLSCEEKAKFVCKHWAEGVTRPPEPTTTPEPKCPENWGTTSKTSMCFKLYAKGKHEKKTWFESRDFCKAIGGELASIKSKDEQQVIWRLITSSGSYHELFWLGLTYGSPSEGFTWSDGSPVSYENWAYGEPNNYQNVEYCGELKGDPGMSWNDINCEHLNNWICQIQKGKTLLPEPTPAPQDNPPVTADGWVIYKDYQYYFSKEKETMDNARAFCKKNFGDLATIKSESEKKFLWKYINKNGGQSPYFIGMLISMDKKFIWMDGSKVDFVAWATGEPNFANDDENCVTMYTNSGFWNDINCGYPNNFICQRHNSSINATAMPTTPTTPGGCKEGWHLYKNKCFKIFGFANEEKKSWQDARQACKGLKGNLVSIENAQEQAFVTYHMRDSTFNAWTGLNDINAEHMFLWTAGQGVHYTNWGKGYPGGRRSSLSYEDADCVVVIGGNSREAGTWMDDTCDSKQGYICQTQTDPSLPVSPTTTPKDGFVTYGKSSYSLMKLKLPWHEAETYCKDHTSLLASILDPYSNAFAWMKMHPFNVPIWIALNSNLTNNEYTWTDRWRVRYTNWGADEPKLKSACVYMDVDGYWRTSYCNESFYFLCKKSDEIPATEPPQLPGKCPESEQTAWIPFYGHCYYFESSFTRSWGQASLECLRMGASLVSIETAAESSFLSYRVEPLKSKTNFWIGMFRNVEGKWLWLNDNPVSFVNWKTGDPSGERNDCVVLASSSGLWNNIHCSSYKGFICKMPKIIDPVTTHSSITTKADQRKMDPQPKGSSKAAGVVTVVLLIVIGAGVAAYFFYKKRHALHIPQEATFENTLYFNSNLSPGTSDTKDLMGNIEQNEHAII
endogenous CD206 in murine M2-polarized macrophages (BMDMs) (mouse (endogenous in M2 BMDMs)), sequence (Q61830 20-1456): as above

RP-182 (peptide): the values for the Kd in assay [1] and in assay [2] were 19 µM and 8 µM, respectively. For the same substance, the thermostability shift of CD206 (CETSA) in assay [3] and in assay [4] was > 4 ° throughout.

Consider CSPGAKVRC [UNO], for which, in assay [5], the “delivery of nanoparticles to tumors” value is given as “able to carry drug-loaded nanoparticles targeting CD206 into xenotransplanted tumors”.
